Measurements reported in paper PMC5101480 (Scientific Reports, 2016).
Entries after “also recorded” stand apart in the source; their conditions may differ.

Experiments:
[1] = biological target: T1, TPR domain of SGTA (SGTA_TPR) (Homo sapiens, UniProt O43765); assay: Isothermal titration calorimetry (ITC), SGTA_TPR titrated into Rpn13 or DMSLD peptide; type: binding
T1 construct: thioredoxin A (TxA) fusion (N, cleaved yes); hexahistidine tag (N, cleaved yes); made in house; host or cells: E. coli BL21(DE3) Rosetta
Method: ITC experiments were performed using an ITC-200 microcalorimeter from Microcal (GE Healthcare) at 25 °C following the standard protocol as reported previously. Proteins or peptide samples were prepared in 10 mM potassium phosphate pH 6.0, 100 mM NaCl, 250 μM TCEP. In each titration, either 40 injections of 1 μL or 20 injections of 2 μL of SGTA_TPR each, at a concentration of 1 mM, were added to a sample of Rpn13 or the Rpn13 derived DMSLD peptide at a concentration of 50 μM in the reaction cell. A nonlinear least-squares minimization algorithm was applied to integrated heat data obtained for the titrations, corrected for heats of dilution, in order to fit the experimentally obtained values to a theoretical titration curve. This was performed using the MicroCal-Origin 7.0 software package. ΔH (reaction enthalpy change in kcal/mol), Kb (equilibrium binding constant in per molar), and n (molar ratio between the proteins in the complex) were used as fitting parameters. The reaction entropy, ΔS, was calculated using the relationships ΔG = −RT lnKb (R = 8.314 J/(mol K), T 298 K) where ΔG = ΔH − TΔS. Dissociation constants (Kd) have been determined for each interaction. Binding was assumed to be at one site (n = 1), to determine the binding affinity (Kd) and thermodynamic parameters.

[2] = biological target: T1, TPR domain of SGTA (SGTA_TPR); assay: Size exclusion chromatography (SEC) complex formation with SGTA_TPR; type: binding; settings: mixed in 1:1 molar ratio
Method: In order to understand molecular details underlying the interaction between SGTA and Rpn13, solution NMR studies were carried out on excised domains of SGTA and Rpn13 guided by earlier mapping studies. Reciprocal chemical shift perturbation (CSP) experiments were performed by titrating unlabelled Rpn13 C-terminal domain (residues 260–407; hereafter described as Rpn13_260-407) into ^15N-labelled TPR domain of SGTA (residues 84–211; hereafter referred to as SGTA_TPR) and vice versa. Assignments of backbone amide resonances were obtained from the BMRB (accession numbers 5709 and 17286, for SGTA_TPR and Rpn13_260-407, respectively). The ^1H-^15N HSQC spectra of both SGTA_TPR and Rpn13_260-407 show binding in a fast exchange regimen (Figs 1A and 2A). […] Binding was further confirmed by size-exclusion chromatography (SEC) and isothermal titration calorimetry (ITC) (Fig. 1C,D). […]
SGTA_TPR and Rpn13 plasmids were transformed into E. coli BL21(DE3) Rosetta cells, with protein expression induced by adding 0.3–0.5 mM isopropyl-β-D-thiogalactopyranoside (IPTG) to bacterial cultures in LB media at OD600 ≈ 0.8, followed by overnight incubation at 18 °C. […] Proteins were concentrated using Vivaspin concentrators (Sartorius Stedin) and sample purity and homogeneity was assessed by SDS-PAGE, mass spectrometry and NMR. […]

T1 sequence (O43765 84-211): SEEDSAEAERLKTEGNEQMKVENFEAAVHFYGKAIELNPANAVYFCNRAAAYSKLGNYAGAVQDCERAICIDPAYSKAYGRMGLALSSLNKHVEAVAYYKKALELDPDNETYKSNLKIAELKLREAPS

B1: Rpn13_260-407: Rpn13 C-terminal domain (residues 260–407), human, expressed in E. coli (protein)
chain: QPIQLSDLQSILATMNVPAGPAGGQQVDLASVLTPEIMAPILANADVQERLLPYLPSGESLPQTADEIQNTLTSPQFQQALGMFSAALASGQLGPLMCQFGLPAEAVEAANKGDVEAFAKAMQNNAKPEQKEGDTKDKKDEEEDMSLD
modifications: left off: thioredoxin A (TxA), N-terminal, cleaved | His6, N-terminal, cleaved
notes: Rpn13 C-terminal domain (residues 260–407), human, expressed in E. coli
ΔS (ITC) ([1]; 1 mM SGTA_TPR into 50 μM sample, pH 6.0, 25 °C, calculated from ΔG = −RT lnKb and ΔG = ΔH − TΔS): 10.6 ± 0.8 cal/mol·K
ΔH (ITC) ([1]; 1 mM SGTA_TPR into 50 μM sample, pH 6.0, 25 °C, one site (n = 1)): -3.37 ± 0.08 kcal/mol
Kd ([1]; ITC-200, 1 mM SGTA_TPR injected into 50 μM Rpn13 or DMSLD peptide, 10 mM potassium phosphate pH 6.0, 100 mM NaCl, 250 μM TCEP, 25 °C, one site (n = 1), read-out: dissociation constant, Kd (ITC)): 16.1 ± 1.4 µM
SEC complex formation with SGTA_TPR [2]: clearly indicative of a stable complex; also recorded: formation of a stable complex
